Assay results: patent US6399314B1, “Methods of detection of amyloidogenic proteins” (American Cyanamid Company, priority 1999, dated 2002)

Columns and labels:
[1] = Thioflavin fluorescence assay of the extent of aggregation of Aβ(1-40) in different buffers/media; assay type: physicochemical; set-up: key to Percent Aggregation in HEPES: ++ indicates aggregates were formed but not quantitated because end point was not reached; settings: rotary shaker 500 rpm
From the text: Fluorescence Spectroscopy. Thioflavin binds amyloid fibrils to induce a characteristic hyperchromic fluorescence shift in the spectrum (LeVine, J. Exp. Clin. Invest., 2:1-6, 1995). The induced fluorescence due to thioflavin is specific for amyloid β-pleated fibrils, but not for other β-sheet structures or for the soluble oligomeric forms of the peptide. Free thioflavin is a weak fluorophore with an excitation maximum at 330 nm. Upon binding to the amyloid fibrils, the fluorescence of thioflavin is enhanced with a red shift in the excitation spectrum by 100 nm, relative to the free form. We have used the increase in fluorescence intensity at excitation and emission wavelengths of 440 nm and 485 nm, respectively, to characterize the aggregation event.
(§1) Spectroscopic Assays. To determine the extent of aggregation, aliquots of the peptide were removed at various time intervals (up to nine hours), and diluted into PBS buffer-containing 10 μM thioflavin. The final concentrations of peptide and thioflavin in the fluorescence assay were 10 μM. The fluorescence intensities of the peptide-thioflavin complex were measured at excitation and emission wavelengths of 435 and 485 nm, respectively, after the reaction had equilibrated for five minutes. Fluorescence spectral scans were made using 435 nm excitation and 485 nm emission wavelengths using a SPEX™ fluorolog-2 spectrofluorometer (Instruments S.A.®, Jobin Yvon-Spex, Edison, N.J.). For the Congo red experiments, peptide-thioflavin complex was titrated with increasing concentrations of Congo red from 0.1 to 3.5 micromolar concentrations. The fluorescence intensity changes were measured at the above-mentioned spectral wavelengths. When fluorescence intensities were measured in a plate reader, the peptide was diluted into PBS buffer-containing 10 μM thioflavin, to a final volume of 100 μL.
Preparation ofAmyloid Peptide. Aβ(1-40) was purchased from Anaspec (San Jose, Calif.) and its chemical purity was verified using reverse phase HPLC, ESI-MS and protein sequencing methods. The lyophilized peptide was dissolved in hexafluoroisopropanol (HFIP) solvent to aid in disaggregation of peptide. Peptide in HFIP solvent, was stored at −80° C. Prior to use, peptide solution was thawed and the solvent was evaporated under a stream of nitrogen. The peptide was dissolved in buffer to obtain a concentration of 50 μM, sonicated approximately twenty to forty seconds, and then vortexed briefly, approximately five seconds or less, to aid dissohltion of peptide. To determine the effects of media on the rates of aggregation, peptide was dissolved in one of the following buffers: PBS, 50 mM HEPES™ or in NEUROBASAL™ medium. Peptide solutions were dispensed into microtiter plates at a final concentration of […] in 100 μL. Aggregation was initiated by shaking plates continuously in a rotary shaker.

[2] = tested on: rat fetal (E18) hippocampal cultures; experiment: Neurotoxicity assay (LDH release); assay type: cell-based; settings: for Toxicity to neuronal cultures: 72 hour toxicity assay
Description: Neurotoxicity Assay. Peptide was aggregated according to the end points determined in the CD and fluorescence assay and applied to primary neuronal cell cultures to assess cytotoxicity of the aggregated peptide. The release of LDH was used to monitor cell viability in the presence of Aβ and Congo red.
Aβ(1-40) toxicity was assessed using eight day-in-vitro (DIV) rat fetal (E18) hippocampal cultures. The cells were cultured in 48-well dishes previously coated with […] 0.1 mg/ml of poly-L-lysine (100 μl/well) and, subsequently, with 100 μl/well of 5 μg/ml of mouse laminin. The cells were seeded at a density of 92,300 cells/well in a total volume of 500 μl of NEUROBASAL™ medium containing 1XB27 supplement, 5% heat inactivated and qualified fetal bovine serum, 0.5 mM glutamine, 50 μ/ml penicillin, and 0.05 mg/ml streptomycin, and were initially placed in humidified 5% CO2 in air. After twenty-four hours, the medium was replaced with fresh medium lacking the penicillin, streptomycin, and fetal bovine serum and the cultures were thereafter maintained in air containing 5% CO2 and 9% O2. Fresh medium was substituted into each well on day five. On the seventh day in vitro, the medium was replaced with antioxidant free B27 supplemented medium lacking the penicillin, streptomycin, and fetal bovine serum. The toxicity test was initiated on the eighth day in vitro by substituting into each well 500 μl of the medium used on day seven (as the control treatment) or an experimental solution prepared with the final (control) medium. Each experimental solution was tested on cultures contained in five wells. Toxicity was assessed on the eleventh day in vitro using the lactic acid dehydrogenase (LDH; Sigma 340-UV) assay. Aggregated peptide was diluted five-fold to a final concentration of 10 uM, for the toxicity assays. Complexes of Congo red with preformed aggregates and those formed in co-aggregates were tested in the cellular assays along with aggregated peptide in vehicle controls.

[3] = biological target: T1, aggregated peptide (Aβ(1-40)) (Homo sapiens, UniProt P05067); experiment: Quenching of thioflavin fluorescence by titration with Congo red; assay type: binding; settings: for Mode of binding to aggregated peptide: Congo red and thioflavin together on aggregated peptide
T1 construct: Aβ(1-40) was purchased from Anaspec (San Jose, Calif.); purchased Anaspec (San Jose, Calif.); host or cells: synthetic peptide
T1 sequence (P05067 672-711 limits assumed): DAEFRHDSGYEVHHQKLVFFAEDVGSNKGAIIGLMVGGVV
From the text: In these experiments, thioflavin was complexed with aggregated peptide prior to titration with increasing amounts of Congo red. The resulting decrease in fluorescence intensity is due to energy transfer of the fluorescence emission of thioflavin to Congo red. Therefore, assays that rely on thioflavin alone are likely to generate false positives in primary assays, while spectroscopic assays described in this invention would identify the more promising inhibitors of amyloidogenesis.
as §1

Aβ (1-40) = biological target: T2, Aβ (1-40) (Homo sapiens, UniProt P05067); experiment: CD spectroscopy of peptide aged in the presence of Congo red (coaggregates); assay type: biochemical; settings: far-UV CD
T2 construct: Aβ (1-40) was dissolved in 100% hexafluoroisopropanol
T2 sequence (P05067 672-711 limits assumed): as above
From the text: Circular Dichroism Spectroscopy. Conformational change of the peptide from the random coil to the β-sheet form, during aging, was monitored using changes to the molar ellipticity of the peptide at 200, 218, or 225 nm. This assay was also used to determine if the changes in the CD spectra occurred concurrently with the changes in the fluorescence spectra of thioflavin. The CD spectrum of the peptide was scanned at various time points to correlate the formation of thioflavin-binding macromolecular assemblies with the appearance of β-sheet conformation.
CD spectra were recorded on a JASCO™ spectropolarimeter model J715 (Jasco, Easton, Md.) at room temperature in a 0.1 cm pathlength cell. Typically, the peptide samples were aliquoted at various time intervals for fluorescence and the CD spectra were scanned using the remaining solution. The CD spectra of the peptide were recorded in the far-UV between 190-260 nm. The spectral results are expressed as deg.[…].dmol^−1.
Amyloid peptide (Aβ) was aged in the absence and presence of Congo red as described below: Aβ (1-40) was dissolved in 100% hexafluoroisopropanol to produce a final concentration of 200 or 400 μM. To aid dissolution of peptide, the solution was sonicated briefly, for about five seconds. An appropriate volume of the peptide solution was transferred to an amber vial and the solvent was evaporated under a stream of nitrogen. […]

β-amyloid protein 1-40 = biological target: T3, β-amyloid protein 1-40 (Homo sapiens, UniProt P05067); experiment: Fluorescence spectroscopy of Congo red complexes with amyloid peptide; assay type: binding
T3 construct: Aβ (1-40) was dissolved in 100% hexafluoroisopropanol
T3 sequence (P05067 672-711 limits assumed): as above
From the text: 3. Fluorescence spectroscopy was used to differentiate complexes of Congo red. Congo red binds to preformed fibrils as well as to intermediate aggregate forms of the amyloid polypeptide. […] The fluorescence excitation spectrum of Congo red in the aggregate-bound state is also red shifted relative to the free form of the […]. Changes in the fluorescence properties of Congo red are dependent on the aggregated state of the […]. The differences in the observed spectral characteristics of the coaggregates and complexes of the fibrillar polypeptide with Congo red are due to the differences in the relative hydrophobicity of the binding sites and to the number of bound Congo red molecules in the complexes with preformed fibrils and coaggregates.
The fluorescence emission spectra of complexes of Congo red were obtained after diluting the peptide fivefold into a buffered solution. Congo red was added to freshly diluted fibrillar peptide and the fluorescence spectrum was scanned at a final concentration of 10 μM of peptide. The concentrations of peptide and Congo red in the fluorescence assay were 10 μM and 8.6 μM respectively. The differences in the fluorescence intensities and emission wavelengths of the coaggregates and preformed aggregate-complexes, were due to the relative differences in the hydrophobicity of the binding sites in the two instances.

Aβ (1-40): synthetic β-amyloid peptide corresponding to the first 40 amino acids of Aβ, purchased from Anaspec
Percent Aggregation in HEPES ([1]; aggregation time 0 hr): 0% | Percent Aggregation in PBS ([1]; aggregation time 0 hr): 0% | Percent Aggregation in NEUROBASAL Medium ([1]; aggregation time 0 hr, relative to thioflavin/Aβ fluorescence at 0 and 4 hr): 0% | Percent Aggregation in HEPES ([1]; aggregation time 1 hr): 0% | Percent Aggregation in NEUROBASAL Medium ([1]; aggregation time 1 hr): 0% | Percent Aggregation in PBS ([1]; aggregation time 1 hr): 0% | Percent Aggregation in HEPES ([1]; aggregation time 2 hr): 0% | Percent Aggregation in NEUROBASAL Medium ([1]; aggregation time 2 hr): 76% | Percent Aggregation in PBS ([1]; aggregation time 2 hr): 51% | Percent Aggregation in HEPES ([1]; aggregation time 4 hr): ++ | Percent Aggregation in NEUROBASAL Medium ([1]; aggregation time 4 hr): 100% | Percent Aggregation in PBS ([1]; aggregation time 4 hr): 100% | Toxicity to neuronal cultures ([2]; aggregated peptide (aged for four hours)): toxic | Toxicity to neuronal cultures ([2]; fresh peptide): non-toxic

Cc1ccc2c(c1)sc(-c1ccc(N(C)C)cc1)[n+]2C.[Cl-] [thioflavin, Thioflavin T]
Mode of binding to aggregated peptide [3]: non-competitively

Nc1c(/N=N/c2ccc(-c3ccc(/N=N/c4cc(S(=O)(=O)[O-])c5ccccc5c4N)cc3)cc2)cc(S(=O)(=O)[O-])c2ccccc12.[Na+].[Na+] [Congo red]
Mode of binding to aggregated peptide [3]: non-competitively | Quenching of fluorescence of free thioflavin ([3]; free thioflavin): 50% | Quenching of fluorescence of peptide-bound thioflavin ([3]; peptide-bound thioflavin, Congo red 0.1 to 3.5 micromolar): greater than one order of magnitude | Effect on toxicity of Aβ ([2]; Congo red complexed with preformed aggregates and in co-aggregates): attenuates the toxicity | Neuroprotection of cell cultures exposed to amyloid peptide ([2]; hippocampal cultures, LDH release): neuroprotective | Effect on aggregation rate of the peptide (Aβ (1-40)): slowed down | Fluorescence enhancement relative to the free form (β-amyloid protein 1-40; Congo red co-aggregated with the amyloid polypeptide): eight-fold | Fluorescence enhancement relative to the free form (β-amyloid protein 1-40; complex between preformed fibrils and Congo red): two-fold
